Experimental data reported in publication PMC7914713, “Elucidating the Importance of DOT1L Recruitment in MLL-AF9 Leukemia and Hematopoiesis” (Cancers, 2021).

Molecular target: T1, MBP-AF9 (MBP carrier left out. The construct limits are not given; the C-terminal ANC1 homology domain (AHD), named as the DOT1L-binding domain, is taken by convention as about 500-568.)
T1 chain: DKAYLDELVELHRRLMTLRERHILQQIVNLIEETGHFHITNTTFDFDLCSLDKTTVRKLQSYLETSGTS
Assay: fluorescence polarisation; competitive: serial dilutions of peptide with fixed MBP-AF9 (200 nM) and N-Flu-DOT1L (10 nM); 100 mM NaH2PO4, 150 mM NaCl, 0.1% β-ME, 0.01% Triton X-100; room temperature, 3 h
Conditions: both partners purified

B1: DOT1L WT 10mer (865–874) peptide (peptide, UniProt Q8TEK3 865-874, looked up)
peptide: LPISIPLSTV
notes: the DOT1L constructs of the cell lines are human; also called 10mer peptide from residues 865–874; 10mer DOT1L peptide; source: synthetic peptide
- Ki: 20 nM
